PMC10646045

Assays:
Experiment in all cases: nanopore single-molecule
[1] = biological target: SARS-CoV-2 nucleocapsid protein (SARS-CoV-2) (UniProt P0DTC9)
[2] = tested on: HCoV-OC43 nucleocapsid protein (HCoV-OC43); details: 20 nM protein, 200 pM probe; SPR: DPBS running buffer, temperature not stated; nanopore: 2 M LiCl, 5 mM MgCl2, 10 mM Tris-HCl, 1 mM EDTA, pH 8, 300 mV, about 2 h incubation
[3] = tested on: HCoV-229E nucleocapsid protein (HCoV-229E); details: 20 nM protein, 200 pM probe; SPR: DPBS running buffer, temperature not stated; nanopore: 2 M LiCl, 5 mM MgCl2, 10 mM Tris-HCl, 1 mM EDTA, pH 8, 300 mV, about 2 h incubation
[4] = biological target: SARS-CoV-2 spike protein S1 region (SARS-CoV-2) (UniProt P0DTC2)
[5] = tested on: HCoV-OC43 spike protein (HCoV-OC43); details: 200 nM protein, 200 pM probe; SPR: DPBS running buffer, temperature not stated; nanopore: 2 M LiCl, 5 mM MgCl2, 10 mM Tris-HCl, 1 mM EDTA, pH 8, 300 mV, about 2 h incubation
[6] = tested on: HCoV-NL63 spike protein (HCoV-NL63); details: 200 nM protein, 200 pM probe; SPR: DPBS running buffer, temperature not stated; nanopore: 2 M LiCl, 5 mM MgCl2, 10 mM Tris-HCl, 1 mM EDTA, pH 8, 300 mV, about 2 h incubation
[7] = tested on: spike protein from lysed SARS-CoV-2 pseudovirus (SARS-CoV-2)

Substance | binding signal (% bound events) [1] | binding signal (% bound events) [2] | binding signal (% bound events) [3] | binding signal (% bound events) [4] | binding signal (% bound events) [5] | binding signal (% bound events) [6] | binding signal (% bound events) [7]
NBA centre-labelled 10 kbp molecular probe | 5.71 | 0.83 | 0.31 |  |  |  | 
SBA end-labelled 10 kbp molecular probe |  |  |  | 9.82 | 0.5 | 0.02 | 0.6
